T1: FLAG-MAZ (Mus musculus, UniProt P56671 1-477)
T1 sequence: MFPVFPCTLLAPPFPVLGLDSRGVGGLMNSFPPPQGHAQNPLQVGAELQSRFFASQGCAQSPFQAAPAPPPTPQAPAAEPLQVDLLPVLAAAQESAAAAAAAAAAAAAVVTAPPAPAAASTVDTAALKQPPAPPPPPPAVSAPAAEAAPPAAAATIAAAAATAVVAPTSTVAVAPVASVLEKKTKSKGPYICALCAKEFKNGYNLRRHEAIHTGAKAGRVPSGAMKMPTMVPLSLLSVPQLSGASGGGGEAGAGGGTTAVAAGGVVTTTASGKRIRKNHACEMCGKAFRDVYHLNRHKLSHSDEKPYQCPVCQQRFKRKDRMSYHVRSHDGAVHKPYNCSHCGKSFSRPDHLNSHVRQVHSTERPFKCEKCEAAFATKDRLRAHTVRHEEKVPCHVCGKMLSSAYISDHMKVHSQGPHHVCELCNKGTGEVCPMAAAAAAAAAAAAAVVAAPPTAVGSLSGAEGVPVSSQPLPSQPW

B1: maz.hoxd48 (WT) (dsDNA)
DNA 1: CCTGGGTGGGAGGGGAATGGGAGGACACAAGAGCCACCCGTTCTTCTGCCCCGCCTTCCACCTCAG
DNA 2: CTGAGGTGGAAGGCGGGGCAGAAGAACGGGTGGCTCTTGTGTCCTCCCATTCCCCTCCCACCCAGG
B2: maz.hoxa56.WT (dsDNA)
DNA 1: GGAGTTGGGTGGAGGCAAGAGGGGTGGCGCGCGCGCCCTG
DNA 2: CAGGGCGCGCGCGCCACCCCTCTTGCCTCCACCCAACTCC

Molecular target: T1, FLAG-MAZ
Test: EMSA; 1 mM ZnSO4, 5 mM MgCl2, salmon sperm DNA; 25 mM HEPES (pH not stated), 50 mM NaCl, 5% glycerol, 5 mM MgCl2, 1 mM ZnSO4, 2 μg salmon sperm DNA, 40 pM probe, 0.25-0.75 μg MAZ, 4 h at 30 °C; 5% gel, 0.25x
Conditions: protein: recombinant; tags: FLAG (CβF vector); label: 32P (T4 PNK); blunt

| Binder | binding result |
| --- | --- |
| B1 | binds |
| B2 | binds |
